From the DeepSol protein solubility set

Test: soluble on expression in E. coli; label from the status in PepcDB or PDB records

| Sequence | soluble on expression in E. coli |
| --- | --- |
| MELVIISGRSGSGKSVALRALEDVGYYCVDNLPFPLIAELASFLLASDCSAVVSLDIRNFPENLTRIDELLHQLSQLTINTKMIFLDCESATLIRRYSDSRRLHPLSNQDLSLASAIELENTLLDPLRQQADYLIDTTHSSPHELAANLRHILRGSTEKELNIVFESFGFKYGLSADADYVFDVRFLPNPHWHAELRAMTGLEQPVIDFLERQTEVHNFIYQTRNYLETWLPMLEKNNRSYLTIAFGCTGGKHRSVFITEQLAKYFQSRGKNVKIRHRSLEKY | not soluble |
| MATQDDAHLAELKKKRTFRKFMYRGVDLDQLLDMSREQFTKLLPCRMRRRLDRGLKRKHLALIAKVQKAKKAAGVLEKPATVKTHLRDMIILPELVGGVIGIYNGKVFNQTEIKPEMIGFYLGEFAISYKPVKHGRPGIGATHSSRFIPLK | not soluble |
| MGSDKIHHHHHHMKATSSFKGQTTGLYIVPTPIGNLEDMTYRAVRILQESDLVAAEDTRQTMKLFNHFKIETKLVSYHEHNKQVSGARLLADLHAGKQIALVSDAGMPGISDPGSDLIREAIAEDIPVIVLPGANAALTALVASGLATERFLYYGFLPRKKKERREALETVRYEKGSLIFYEAPHRLKEMLGALRDVLGDRQLTLARELTKRYEEYIRGSVTEALEWAEEEVRGEFVVIVEGSTEERPAEEEQKADPLQQIERYIEQGEKPNAALKRVAKERGLDRQELYLRYHES | not soluble |
| GMSIIDLTKLEQKVATMWDSILTNSPFIHEVLDGKATKALYAIYMTETYHYTKHNAKNQALVGIMGKDLPGKYLSFCFHHAHEEAGHELMALSDIASIGFDREDVLSSKPLPATETLIAYLYWISATGNPVQRLGYSYWAENVYGYIDPVLKAIQSTLDLTPQSMKFFIAHSKIDAKHAEEVNEMLHEVCKTQEDVDSVVAVMENSLVLTARILDDVWKEYQLFQSGASDRYAFLRDNA | soluble |
| MAHRKTTTKNGNGGTLGFEAELFKAADKLRGNMEPSDYKHVALGLIFLKYISDAFEAKHSALLAEDAQAAEDKDEYLAHNVFWVPKQARWSHLKANAKQSTIGTLIDEAMRDIEKDNPSLKHVLPKDYARPALNKVMLGELIDLISGIALNEEGARSKDILGRVYEYFLGQFAGAEGKRGGEFYTPRSVVRVLVQMLEPYSGRVYDPCCGSGGMFVQSEKFVLEHGGRIGDIAIYGQESNYTTWRLAKMNLAVRGIDSDIRWNNEGSFHNDALRDLKADYILANPPFNISDWGGDRLREDVRWKFGVPPAGNANYAWLQHIYHHLAPNGTAGVVLANGSMSSNHSGEGEIRTHMIEADIVDCMIAMPGQLFYSTQIPACLWFLARNKNPGKGLRDRRGQVLLMDARALGVLVDRTRRELTDEHIQQIADTYHAWRGEQGAAAYADVAGFCKSATLEDIRKQGYVLTPGRYVGAVEREDDGEPFPQKMQRLSAQWRAQRAAAAKLDAAIAANLKELGYGG | soluble |
| ASLYEKLGGAAAVDLAVEKFYGKVLADERVNRFFVNTDMAKQKQHQKDFMTYAFGGTDRFPGRSMRAAHQDLVENAGLTDVHFDAIAENLVLTLQELNVSQDLIDEVVTIVGSVQHRNDVLNR | soluble |
| GTEDLYFQSHMTIAVTGSIATDHLMRFPGRFSEQLLPEHLHKVSLSFLVDDLVMHRGGVAGNMAFAIGVLGGEVALVGAAGADFADYRDWLKARGVNCDHVLISETAHTARFTCTTDVDMAQIASFYPGAMSEARNIKLADVVSAIGKPELVIIGANDPEAMFLHTEECRKLGLAFAADPSQQLARLSGEEIRRLVNGAAYLFTNDYEWDLLLSKTGWSEADVMAQIDLRVTTLGPKGVDLVEPDGTTIHVGVVPETSQTDPTGVGDAFRAGFLTGRSAGLGLERSAQLGSLVAVLVLESTGTQEWQWDYEAAASRLAGAYGEHAAAEIVAVLA | soluble |
| MLFVLILSHRAASYGAIMAALPYMQLYIADYLADTMHLSAEEHGAYLLLMFNYWQTGKPIPKNRLAKIARLTNERWADVEPSLQEFFCDNGEEWVHLRIEEDLASVREKLTKKSAAGKASVQARRSRKEADVQTKQERNLTGVQTDVEVVFEHDVNTKATNKDTDKDLKTDPPLNPPRGNRGVKKFDPLDITLPNWISVSLWREWVEFRQALRKPIRTEQGANGAIRELEKFRQQGFSPEQVIRHSIANEYQGLFAPKGVRPETLLRQVNTVSLPDSAIPPGFRG | not soluble |
